Results as given in patent US20230365662A1.
Where “and” joins values, the source holds several entries; their conditions need not be identical. Equal entries are not always repeated.

B1: KB001 mouse Fab FASEBA VH Y106Q (Fab, V domains shown)
VH: EVQLKQSGPGLVAPSQSLSITCTVSGFSLSIYSVHWVRQPPGKGLEWLGMIWGGGSSDYNSALKSRLSISKDNSKSQVFLKMNSLQTDDTAMYYCARNGNFYAMDQWGQGTSVTVSS
VL: QIVLTQSPAIMSASLGERVTMTCTASSSVSSSFLHWYQQKPGSSPQLWIYSTSNLASGVPARFSGSGSGTSYSLTISSMEAEDAATYYCHQYHHSPYIYTFGGGTKLEIK
B2: KB001 mouse Fab FASEBA VH S28Y (Fab, V domains shown)
VH: EVQLKQSGPGLVAPSQSLSITCTVSGFYLSIYSVHWVRQPPGKGLEWLGMIWGGGSSDYNSALKSRLSISKDNSKSQVFLKMNSLQTDDTAMYYCARNGNFYAMDYWGQGTSVTVSS
VL: QIVLTQSPAIMSASLGERVTMTCTASSSVSSSFLHWYQQKPGSSPQLWIYSTSNLASGVPARFSGSGSGTSYSLTISSMEAEDAATYYCHQYHHSPYIYTFGGGTKLEIK
B3: KB001 mouse Fab FASEBA VH S28L (Fab, V domains shown)
VH: EVQLKQSGPGLVAPSQSLSITCTVSGFLLSIYSVHWVRQPPGKGLEWLGMIWGGGSSDYNSALKSRLSISKDNSKSQVFLKMNSLQTDDTAMYYCARNGNFYAMDYWGQGTSVTVSS
VL: QIVLTQSPAIMSASLGERVTMTCTASSSVSSSFLHWYQQKPGSSPQLWIYSTSNLASGVPARFSGSGSGTSYSLTISSMEAEDAATYYCHQYHHSPYIYTFGGGTKLEIK
B4: KB001 mouse Fab FASEBA VH S28N (Fab, V domains shown)
VH: EVQLKQSGPGLVAPSQSLSITCTVSGFNLSIYSVHWVRQPPGKGLEWLGMIWGGGSSDYNSALKSRLSISKDNSKSQVFLKMNSLQTDDTAMYYCARNGNFYAMDYWGQGTSVTVSS
VL: QIVLTQSPAIMSASLGERVTMTCTASSSVSSSFLHWYQQKPGSSPQLWIYSTSNLASGVPARFSGSGSGTSYSLTISSMEAEDAATYYCHQYHHSPYIYTFGGGTKLEIK
B5: KB001 mouse Fab FASEBA VH S28A (Fab, V domains shown)
VH: EVQLKQSGPGLVAPSQSLSITCTVSGFALSIYSVHWVRQPPGKGLEWLGMIWGGGSSDYNSALKSRLSISKDNSKSQVFLKMNSLQTDDTAMYYCARNGNFYAMDYWGQGTSVTVSS
VL: QIVLTQSPAIMSASLGERVTMTCTASSSVSSSFLHWYQQKPGSSPQLWIYSTSNLASGVPARFSGSGSGTSYSLTISSMEAEDAATYYCHQYHHSPYIYTFGGGTKLEIK
B6: KB001 mouse Fab FASEBA VH L29V (Fab, V domains shown)
VH: EVQLKQSGPGLVAPSQSLSITCTVSGFSVSIYSVHWVRQPPGKGLEWLGMIWGGGSSDYNSALKSRLSISKDNSKSQVFLKMNSLQTDDTAMYYCARNGNFYAMDYWGQGTSVTVSS
VL: QIVLTQSPAIMSASLGERVTMTCTASSSVSSSFLHWYQQKPGSSPQLWIYSTSNLASGVPARFSGSGSGTSYSLTISSMEAEDAATYYCHQYHHSPYIYTFGGGTKLEIK
B7: KB001 mouse Fab FASEBA VH S30K (Fab, V domains shown)
VH: EVQLKQSGPGLVAPSQSLSITCTVSGFSLKIYSVHWVRQPPGKGLEWLGMIWGGGSSDYNSALKSRLSISKDNSKSQVFLKMNSLQTDDTAMYYCARNGNFYAMDYWGQGTSVTVSS
VL: QIVLTQSPAIMSASLGERVTMTCTASSSVSSSFLHWYQQKPGSSPQLWIYSTSNLASGVPARFSGSGSGTSYSLTISSMEAEDAATYYCHQYHHSPYIYTFGGGTKLEIK
B8: KB001 mouse Fab FASEBA VH S30Q (Fab, V domains shown)
VH: EVQLKQSGPGLVAPSQSLSITCTVSGFSLQIYSVHWVRQPPGKGLEWLGMIWGGGSSDYNSALKSRLSISKDNSKSQVFLKMNSLQTDDTAMYYCARNGNFYAMDYWGQGTSVTVSS
VL: QIVLTQSPAIMSASLGERVTMTCTASSSVSSSFLHWYQQKPGSSPQLWIYSTSNLASGVPARFSGSGSGTSYSLTISSMEAEDAATYYCHQYHHSPYIYTFGGGTKLEIK
B9: KB001 mouse Fab FASEBA VH S28H (Fab, V domains shown)
VH: EVQLKQSGPGLVAPSQSLSITCTVSGFHLSIYSVHWVRQPPGKGLEWLGMIWGGGSSDYNSALKSRLSISKDNSKSQVFLKMNSLQTDDTAMYYCARNGNFYAMDYWGQGTSVTVSS
VL: QIVLTQSPAIMSASLGERVTMTCTASSSVSSSFLHWYQQKPGSSPQLWIYSTSNLASGVPARFSGSGSGTSYSLTISSMEAEDAATYYCHQYHHSPYIYTFGGGTKLEIK
B10: KB001 mouse Fab FASEBA VH G26N (Fab, V domains shown)
VH: EVQLKQSGPGLVAPSQSLSITCTVSNFSLSIYSVHWVRQPPGKGLEWLGMIWGGGSSDYNSALKSRLSISKDNSKSQVFLKMNSLQTDDTAMYYCARNGNFYAMDYWGQGTSVTVSS
VL: QIVLTQSPAIMSASLGERVTMTCTASSSVSSSFLHWYQQKPGSSPQLWIYSTSNLASGVPARFSGSGSGTSYSLTISSMEAEDAATYYCHQYHHSPYIYTFGGGTKLEIK
B11: KB001 mouse Fab FASEBA VH L29P (Fab, V domains shown)
VH: EVQLKQSGPGLVAPSQSLSITCTVSGFSPSIYSVHWVRQPPGKGLEWLGMIWGGGSSDYNSALKSRLSISKDNSKSQVFLKMNSLQTDDTAMYYCARNGNFYAMDYWGQGTSVTVSS
VL: QIVLTQSPAIMSASLGERVTMTCTASSSVSSSFLHWYQQKPGSSPQLWIYSTSNLASGVPARFSGSGSGTSYSLTISSMEAEDAATYYCHQYHHSPYIYTFGGGTKLEIK
B12: KB001 mouse Fab FASEBA VH G26D (Fab, V domains shown)
VH: EVQLKQSGPGLVAPSQSLSITCTVSDFSLSIYSVHWVRQPPGKGLEWLGMIWGGGSSDYNSALKSRLSISKDNSKSQVFLKMNSLQTDDTAMYYCARNGNFYAMDYWGQGTSVTVSS
VL: QIVLTQSPAIMSASLGERVTMTCTASSSVSSSFLHWYQQKPGSSPQLWIYSTSNLASGVPARFSGSGSGTSYSLTISSMEAEDAATYYCHQYHHSPYIYTFGGGTKLEIK
B13: KB001 mouse Fab FASEBA VH Y106S (Fab, V domains shown)
VH: EVQLKQSGPGLVAPSQSLSITCTVSGFSLSIYSVHWVRQPPGKGLEWLGMIWGGGSSDYNSALKSRLSISKDNSKSQVFLKMNSLQTDDTAMYYCARNGNFYAMDSWGQGTSVTVSS
VL: QIVLTQSPAIMSASLGERVTMTCTASSSVSSSFLHWYQQKPGSSPQLWIYSTSNLASGVPARFSGSGSGTSYSLTISSMEAEDAATYYCHQYHHSPYIYTFGGGTKLEIK
B14: KB001 mouse Fab FASEBA VH S28R (Fab, V domains shown)
VH: EVQLKQSGPGLVAPSQSLSITCTVSGFRLSIYSVHWVRQPPGKGLEWLGMIWGGGSSDYNSALKSRLSISKDNSKSQVFLKMNSLQTDDTAMYYCARNGNFYAMDYWGQGTSVTVSS
VL: QIVLTQSPAIMSASLGERVTMTCTASSSVSSSFLHWYQQKPGSSPQLWIYSTSNLASGVPARFSGSGSGTSYSLTISSMEAEDAATYYCHQYHHSPYIYTFGGGTKLEIK
B15: KB001 mouse Fab FASEBA VH Y106W (Fab, V domains shown)
VH: EVQLKQSGPGLVAPSQSLSITCTVSGFSLSIYSVHWVRQPPGKGLEWLGMIWGGGSSDYNSALKSRLSISKDNSKSQVFLKMNSLQTDDTAMYYCARNGNFYAMDWWGQGTSVTVSS
VL: QIVLTQSPAIMSASLGERVTMTCTASSSVSSSFLHWYQQKPGSSPQLWIYSTSNLASGVPARFSGSGSGTSYSLTISSMEAEDAATYYCHQYHHSPYIYTFGGGTKLEIK
B16: KB001 mouse Fab FASEBA VH L29T (Fab, V domains shown)
VH: EVQLKQSGPGLVAPSQSLSITCTVSGFSTSIYSVHWVRQPPGKGLEWLGMIWGGGSSDYNSALKSRLSISKDNSKSQVFLKMNSLQTDDTAMYYCARNGNFYAMDYWGQGTSVTVSS
VL: QIVLTQSPAIMSASLGERVTMTCTASSSVSSSFLHWYQQKPGSSPQLWIYSTSNLASGVPARFSGSGSGTSYSLTISSMEAEDAATYYCHQYHHSPYIYTFGGGTKLEIK
B17: KB001 mouse Fab FASEBA VH S30R (Fab, V domains shown)
VH: EVQLKQSGPGLVAPSQSLSITCTVSGFSLRIYSVHWVRQPPGKGLEWLGMIWGGGSSDYNSALKSRLSISKDNSKSQVFLKMNSLQTDDTAMYYCARNGNFYAMDYWGQGTSVTVSS
VL: QIVLTQSPAIMSASLGERVTMTCTASSSVSSSFLHWYQQKPGSSPQLWIYSTSNLASGVPARFSGSGSGTSYSLTISSMEAEDAATYYCHQYHHSPYIYTFGGGTKLEIK
B18: KB001 mouse Fab FASEBA VH S28G (Fab, V domains shown)
VH: EVQLKQSGPGLVAPSQSLSITCTVSGFGLSIYSVHWVRQPPGKGLEWLGMIWGGGSSDYNSALKSRLSISKDNSKSQVFLKMNSLQTDDTAMYYCARNGNFYAMDYWGQGTSVTVSS
VL: QIVLTQSPAIMSASLGERVTMTCTASSSVSSSFLHWYQQKPGSSPQLWIYSTSNLASGVPARFSGSGSGTSYSLTISSMEAEDAATYYCHQYHHSPYIYTFGGGTKLEIK
B19: KB001 mouse Fab FASEBA VH S30T (Fab, V domains shown)
VH: EVQLKQSGPGLVAPSQSLSITCTVSGFSLTIYSVHWVRQPPGKGLEWLGMIWGGGSSDYNSALKSRLSISKDNSKSQVFLKMNSLQTDDTAMYYCARNGNFYAMDYWGQGTSVTVSS
VL: QIVLTQSPAIMSASLGERVTMTCTASSSVSSSFLHWYQQKPGSSPQLWIYSTSNLASGVPARFSGSGSGTSYSLTISSMEAEDAATYYCHQYHHSPYIYTFGGGTKLEIK
B20: KB001 mouse Fab FASEBA VH Y106N (Fab, V domains shown)
VH: EVQLKQSGPGLVAPSQSLSITCTVSGFSLSIYSVHWVRQPPGKGLEWLGMIWGGGSSDYNSALKSRLSISKDNSKSQVFLKMNSLQTDDTAMYYCARNGNFYAMDNWGQGTSVTVSS
VL: QIVLTQSPAIMSASLGERVTMTCTASSSVSSSFLHWYQQKPGSSPQLWIYSTSNLASGVPARFSGSGSGTSYSLTISSMEAEDAATYYCHQYHHSPYIYTFGGGTKLEIK
B21: KB001 mouse Fab FASEBA VH Y106K (Fab, V domains shown)
VH: EVQLKQSGPGLVAPSQSLSITCTVSGFSLSIYSVHWVRQPPGKGLEWLGMIWGGGSSDYNSALKSRLSISKDNSKSQVFLKMNSLQTDDTAMYYCARNGNFYAMDKWGQGTSVTVSS
VL: QIVLTQSPAIMSASLGERVTMTCTASSSVSSSFLHWYQQKPGSSPQLWIYSTSNLASGVPARFSGSGSGTSYSLTISSMEAEDAATYYCHQYHHSPYIYTFGGGTKLEIK

Target: HRgpA-6H (Porphyromonas gingivalis) (UniProt P28784)
Test: ELISA on coated HRgpA-6H

Chain of UniProt P28784 (P28784 228-991 limits assumed): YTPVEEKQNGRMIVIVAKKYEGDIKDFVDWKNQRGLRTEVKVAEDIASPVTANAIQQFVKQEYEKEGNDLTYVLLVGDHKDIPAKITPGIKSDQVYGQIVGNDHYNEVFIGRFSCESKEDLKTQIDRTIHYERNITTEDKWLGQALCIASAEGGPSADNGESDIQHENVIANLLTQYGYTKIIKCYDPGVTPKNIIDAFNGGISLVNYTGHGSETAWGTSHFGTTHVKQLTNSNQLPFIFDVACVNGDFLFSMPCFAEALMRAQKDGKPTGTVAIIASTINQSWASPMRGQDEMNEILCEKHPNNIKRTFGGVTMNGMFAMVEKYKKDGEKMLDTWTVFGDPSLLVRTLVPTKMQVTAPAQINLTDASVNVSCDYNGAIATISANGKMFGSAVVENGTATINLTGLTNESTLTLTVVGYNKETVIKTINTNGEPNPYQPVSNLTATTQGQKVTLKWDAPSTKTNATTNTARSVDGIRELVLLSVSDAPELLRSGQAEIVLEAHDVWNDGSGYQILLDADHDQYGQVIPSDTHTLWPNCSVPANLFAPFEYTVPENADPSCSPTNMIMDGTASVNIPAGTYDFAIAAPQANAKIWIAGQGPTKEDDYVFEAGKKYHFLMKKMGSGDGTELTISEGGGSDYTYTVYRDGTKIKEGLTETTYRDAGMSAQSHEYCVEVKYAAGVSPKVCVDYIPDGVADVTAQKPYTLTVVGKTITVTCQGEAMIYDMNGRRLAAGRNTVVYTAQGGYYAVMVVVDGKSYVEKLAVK

| Binder | OD450nm | Ratio OD(Variant)/OD(WT) |
| --- | --- | --- |
| B1 | 0.792 | 1.03 |
| B2 | 0.437 | 0.809 |
| B3 | 0.435 and 0.468 | 0.806 and 0.867 |
| B4 | 0.53 | 0.981 |
| B5 | 0.488 | 0.904 |
| B6 | 0.446 | 0.826 |
| B7 | 0.46 and 0.467 and 0.493 | 0.912 and 0.926 and 0.977 |
| B8 | 0.47 and 0.483 | 0.932 and 0.957 |
| B9 | 0.511 and 0.526 | 0.946 and 0.974 |
| B10 | 0.445 | 0.876 |
| B11 | 0.468 | 0.867 |
| B12 | 0.47 and 0.481 | 0.925 and 0.947 |
| B13 | 0.852 and 0.849 | 1.11 and 1.1 |
| B14 | 0.458 | 0.848 |
| B15 | 0.791 and 0.809 and 0.82 | 1.03 and 1.05 and 1.07 |
| B16 | 0.502 and 0.512 and 0.501 | 0.93 and 0.948 and 0.928 |
| B17 | 0.481 | 0.953 |
| B18 | 0.468 and 0.486 | 0.867 and 0.9 |
| B19 | 0.457 | 0.906 |
| B20 | 0.792 | 1.03 |
| B21 | 0.807 | 1.05 |
